Experimental data from paper PMC6457526, “Structure-based molecular characterization and regulatory mechanism of the LftR transcription factor from Listeria monocytogenes: Conformational flexibilities and a ligand-induced regulatory mechanism” (PLoS ONE, 2019).

Assays:
LftR = target: T1, LftR (Listeria monocytogenes, UniProt L8DXR9); assay: fluorescence polarization assay; assay type: binding
T1 construct: full length, 108 residues, expressed in E. coli; homodimer

[1] = target: the molecule itself; assay: SEC; Superdex 200 10/300, 20 mM HEPES pH 7.4, 150 mM NaCl; apparent molecular weight from gel filtration standards
LftR L69A = LftR L69A (Listeria monocytogenes, UniProt Q8Y923 1-108, L69A); assay: fluorescence polarization; FP: 28-mer OP-1 with 5' fluorescein, ex 485 nm / em 535 nm, single-site fit (Prism 5); buffer, salt, pH and temperature of FP and EMSA not given in the material; details: protein: recombinant; tags: C-terminal His6; chain copies: 2; label: 5' fluorescein on top strand
LftR K56A = LftR K56A (Listeria monocytogenes, UniProt Q8Y923 1-108, K56A); assay: as above; details: protein: recombinant; tags: C-terminal His6; chain copies: 2; label: 5' fluorescein on top strand
LftR Y28A = LftR Y28A (Listeria monocytogenes, UniProt Q8Y923 1-108, Y28A); assay: as above; details: protein: recombinant; tags: C-terminal His6; chain copies: 2; label: 5' fluorescein on top strand
LftR R53A = LftR R53A (Listeria monocytogenes, UniProt Q8Y923 1-108, R53A); assay: as above; details: protein: recombinant; tags: C-terminal His6; chain copies: 2; label: 5' fluorescein on top strand
LftR K9A = LftR K9A (Listeria monocytogenes, UniProt Q8Y923 1-108, K9A); assay: as above; details: protein: recombinant; tags: C-terminal His6; chain copies: 2; label: 5' fluorescein on top strand
LftR wildtype = LftR wildtype (Listeria monocytogenes, UniProt Q8Y923 1-108); assay: as above; details: protein: recombinant; tags: C-terminal His6 (LftRCtH); chain copies: 2; label: 5' fluorescein on top strand

CC[n+]1c(-c2ccccc2)c2cc(N)ccc2c2ccc(N)cc21 [ethidium bromide]
Kd (LftR): 3.7 ± 1.17 µM

B1: LftRCtH, LftR with a C-terminal His6 tag (natural protein)
chain: MKGLTELLKGSLEGMILERISRGETYGYEITKYLNDLGFDEIVEGTVYTILVRLEKKGLVEIEKKKSELGPPRKFYTLSPAGEEELAIFWKRWDFIQGKIMQVKGGQA
notes: LftR, PadR-2 subfamily transcription factor of Listeria monocytogenes, encoded by lmo0719; 108 residues; Cloned NdeI/XmaI into a modified pET49b vector with a C-terminal His6 tag; source: E. coli BL21 (DE3), purified (Ni-NTA); not shown: His6, C-terminal, kept
stoichiometry N [1]: 2

B2: OP-1 28-mer dsDNA (FP) (dsDNA)
DNA 1: GTATTACTATATACTTGTACCTAGTAAC
DNA 2: GTTACTAGGTACAAGTATATAGTAATAC
Kd (LftR L69A): 62.6 ± 1.3 nM
Kd (LftR K56A): 28.7 ± 2.3 nM
Kd (LftR Y28A): 89.6 ± 1.9 nM
Kd (LftR R53A): 40.1 ± 0.8 nM
Kd (LftR K9A): 197 ± 12.1 nM
Kd (LftR wildtype): 6.2 ± 1.5 nM

B3: LftR_(ΔNtH), tag-free LftR protein after thrombin removal of the N-terminal His6 tag (natural protein)
chain: GSAKDPMKGLTELLKGSLEGMILERISRGETYGYEITKYLNDLGFDEIVEGTVYTILVRLEKKGLVEIEKKKSELGPPRKFYTLSPAGEEELAIFWKRWDFIQGKIMQVKGGQA
notes: six additional vector-derived amino acids left at the N-terminus after thrombin cleavage (numbered -5 to 0 in the structure); LftR, PadR-2 subfamily transcription factor of Listeria monocytogenes, encoded by lmo0719; 108 residues; Expressed from a modified pET49b vector with N-terminal His6 tag and thrombin site; also called Listeria protein facilitating invasion/transcriptional regulator; …
stoichiometry N [1]: 2
